Numbering of substitutions follows the chain as printed. Numbers in names are those of the source.

The chains are these.
B1: PaDa-I (AaeUPO variant) (Cyclocybe aegerita; F119A/F354L/I291V/L110F/V100A/V118I) (protein)
chain: EPGLPPGPLENSSAKLVNDEAHPWKPLRPGDIRGPCPGLNTLASHGYLPRNGVATPAQIINAVQEGFNFDNQAAIAATYAAHLVDGNLITDLLSIGRKTRLTGPDPPPPASVGGLNEHGTFEGDASMTRGDAFFGNNHDFNETLFEQLVDYSNRFGGGKYNLTVAGELRFKRIQDSIATNPNFSFVDFRFFTAYGETTFPANLFVDGRRDDGQLDMDAARSFFQFSRMPDDFFRAPSPRSGTGVEVVVQAHPMQPGRNVGKINSYTVDPTSSDFSTPCLMYEKFVNITVKSLYPNPTVQLRKALNTNLDFLFQGVAAGCTQVFPYGRD
notes: laboratory-evolved secreted variant; plasmid pJRoC30-PaDa-I in Saccharomyces cerevisiae BJ5465, purified; only F311L given; recalled mature changes V57A/L67F/V75I/I248V/F311L (plus signal peptide F12Y/A14V/R15G/A21D); heme-thiolate, N-glycosylated
B2: PaDa-I (AaeUPO variant) (Cyclocybe aegerita; F119L/F234A/F354L/I291V/L110F/V100A/V118I) (protein)
chain: B1 chain with A76L, F191A
notes: as for B1
B3: PaDa-I (AaeUPO variant) (Cyclocybe aegerita; F234A/F354L/I291V/L110F/V100A/V118I) (protein)
chain: B1 chain with A76F, F191A
notes: as for B1
B4: PaDa-I (AaeUPO variant) (Cyclocybe aegerita; F119A/F234A/F354L/I291V/L110F/V100A/V118I) (protein)
chain: B1 chain with F191A
notes: as for B1
B5: PaDa-I (AaeUPO variant) (Cyclocybe aegerita; F119L/F354L/I291V/L110F/V100A/V118I) (protein)
chain: B1 chain with A76L
notes: as for B1

Substrate in this data set: O=[N+]([O-])c1ccc2c(c1)OCO2
The data set is described as follows: purified protein. Particulars: H2O2 1 mM, potassium phosphate 50 mM pH 7.0, 20% v/v acetonitrile. Format: biochemical, Cyclocybe aegerita.
Regarding B1, the Km came out at 1386 ± 176 µM, the kcat came out at 356 ± 30 s⁻¹ and the kcat/Km amounted to 257000 M⁻¹ s⁻¹.
The corresponding values for B2 are 1552 ± 155 µM, 332 ± 33 s⁻¹ and 214000 M⁻¹ s⁻¹.
On the same counts, the results for B3 are 525 ± 73 µM, 279 ± 18 s⁻¹ and 531000 M⁻¹ s⁻¹.
On the same counts, the results for B4 are 1389 ± 119 µM, 258 ± 15 s⁻¹ and 186000 M⁻¹ s⁻¹.
Consider B5, for which the Km came out at 890 ± 81 µM, the catalytic constant (kcat) came out at 454 ± 22 s⁻¹ and the catalytic efficiency (kcat/Km) came out at 510000 M⁻¹ s⁻¹.

For orientation: Km means the substrate concentration at which the rate is half of its maximum. The kcat is the number of substrate molecules converted per active site and unit of time at saturation. Usually kcat/Km stands for the turnover number divided by the Michaelis constant.

These data come from paper PMC7460833, “Exploring the Role of Phenylalanine Residues in Modulating the Flexibility and Topography of the Active Site in the Peroxygenase Variant PaDa-I” (International Journal of Molecular Sciences, 2020).
